In PMC9723635:
Values belong to the substance of their own block, whether it stands above or below them.

Legend:
[1] = target: recombinant wild-type RBPMS-A (RNA Binding Protein with Multiple Splicing, canonical isoform A) (UniProt Q93062); assay: AUC; sedimentation velocity, interference data, 40 000 rpm, 20°C, overnight; protein at 0.5 mg/ml in 20 mM HEPES, 500 mM KCl, 1 mM TCEP, pH 7.9; c(s) distributions by SEDFIT; self-association into dimers and higher-order oligomers
[2] = system: RBPMS-A WT; assay: UV crosslinking; settings: 4 uM protein, EMSA: 50 mM HEPES pH 7.2-7.9, 15 mM MgCl2, 25% glycerol, 5 mM DTT, 45 mM KCl, 5 ug tRNA, 20 fmol RNA, 25 min at 30 C, then 5 ug heparin 5 min at 30 C
[3] = target: recombinant RBPMS-A T/A (double mutant T113A and T118A) (UniProt Q93062); assay: AUC; sedimentation velocity, interference data, 40 000 rpm, 20°C, overnight; protein at 0.5 mg/ml in 20 mM HEPES, 500 mM KCl, 1 mM TCEP, pH 7.9; c(s) distributions by SEDFIT; self-association into dimers and higher-order oligomers
[4] = target: truncated RBPMS-A T/E (amino acids 1-122, T113E and T118E), the sample used for NMR (UniProt Q93062); assay: SEC-MALS; 50 μl at ~2 mg/ml on Superdex 75 10/300 GL increase, 10 mM HEPES pH 6.8, 50 mM KCl, 0.5 ml/min; self-association (dimer)
[5] = system: RBPMS-A WT; assay: EMSA; settings: apparent Kd, Hill fit; tRNA and heparin present; EMSA: 50 mM HEPES pH 7.2-7.9, 15 mM MgCl2, 25% glycerol, 5 mM DTT, 45 mM KCl, 5 ug tRNA, 20 fmol RNA, 25 min at 30 C, then 5 ug heparin 5 min at 30 C; 4% …

Substance: recombinant wild-type RBPMS-A (RNA Binding Protein with Multiple Splicing, canonical isoform A) (from UniProt Q93062 2-196) (natural protein)
stoichiometry N [1]: 2

Substance: Tpm1 UV-crosslinking RNA
binding signal (% (reference)) ([2]; no nuclear extract): 100
binding signal (% (reference)) ([2]; with 20% HeLa nuclear extract): 100

Substance: Tpm1 exon 3 upstream intron EMSA RNA (three tandem CAC motifs)
Kd [5]: 213 nM

Now from value to substance:

stoichiometry N [3]: 2
Substance: recombinant RBPMS-A T/A (double mutant T113A and T118A) (from UniProt Q93062 2-196) (natural protein)

stoichiometry N [4]: 2
Substance: truncated RBPMS-A T/E (amino acids 1-122, T113E and T118E), the sample used for NMR (from UniProt Q93062 1-122) (domain or fragment)
